Source: patent US20250320312A1 (OXITOPE PHARMA B V, published 2025)

How the values were obtained:
Peptide 8 = target: T1, Peptide 8 (N-terminal biotin; C-terminal Tyr without PC conjugation; C-terminal acid); test: scFv ELISA, OD450
T1 construct: Unconjugated control peptide
T1 peptide: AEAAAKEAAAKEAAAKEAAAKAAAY
Method: (§1) For ELISA analysis of scFv binding, 96-well polystyrene plates were coated with Peptide 1, 4, 5, 8 or 100 μL BSA (10 μg/mL) in PBS at 4° C. overnight. Plates were washed three times with PBS-Tween and blocked with 100 μL 1% BSA-TBS for 1 hour at room temperature. 96-well streptavidin coated plates were coated with 100 μL biotinylated PC-peptides (1 μg/mL) in PBS for 1 hour at room temperature.
(§2) All plates were washed three times with PBS-Tween before 40 μL aliquots of PPE were added to assay plates along with 50 μL 10% BSA, and plates were incubated for 1 hour at room temperature. After washing, […] HRP conjugated anti-V5 in 5% BSA was added, and plates were incubated at room temperature for 30 mins. Plates were washed and 100 μL TMB substrate was added. Color was left to develop at room temperature before the reaction was stopped with 100 μL 1N HCl. The amount of scFv bound to each well was quantitated from absorbance measurement at 450 nm (OD450).

Peptide 4 = target: T2, Peptide 4 (N-terminal biotin; C-terminal Tyr without PC conjugation; C-terminal acid); test: scFv ELISA, OD450
T2 construct: Unconjugated control peptide
T2 peptide: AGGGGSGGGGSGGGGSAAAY
Method: as §1, §2

B1: PcOxP_DB02_E06 (scFv) (scFv, V domains shown)
VH: EVQLLESGGGLVQPGGSLRLSCAASGFTFSDEYMEWVRQAPGKGLEWVAASRGKGNSYTTEYADSVKGRFTISRDNSKNTLYLQMNSLRAEDTAVYYCARDYYGSSYWYFDVWGQGTLVTVSS
VL: DIQMTQSPSSLSASVGDRVTITCTASESLYSSKHKVHYLAWYQQKPGKAPKLLIYGASNRYIGVPSRFSGSGSGTDFTLTISSLQPEDFATYYCAQFYSYPLTFGGGTKVEIK
notes: scFv in periplasmic extract
B1: no binding (tested: avg neg. control OD450 + 3x SD) (Peptide 8); no binding (tested: avg neg. control OD450 + 3x SD) (Peptide 4).
